Measurements as given in publication doi:10.1101/2023.12.22.572801.

Biological target: RbpB (BT_1887), recombinant B. thetaiotaomicron RbpB (B. thetaiotaomicron) (UniProt A9IXD6)
Test: SEC

RbpB (BT_1887), recombinant B. thetaiotaomicron RbpB (from UniProt A9IXD6 1-44) (natural protein)
stoichiometry N: 2
